Measurements as given in patent US20100029573A1 (IMMATICS BIOTECHNOLOGIES, published 2010).

Legend:
[1] = target: MHC-A*02 tetramers complexed with the peptide … (human); assay: double tetramer staining, flow cytometry
[2] = target: T1, HLA-B*0702 (human); assay: recombinant B*0702 complexed with peptide, tetramer and microspheres
T1 construct: MHC class I molecule without the peptide
Description: Predetermined avidity of human CD8 T cells expanded on calibrated MHC/anti-CD28-coated microspheres. J. Immunol. […] Each dot represents the percentage of tetramer+among CD8+ lymphocytes from one well.

[3] = target: T1, HLA-B*0702; assay: peptide-pulsed KM22 cells; recombinant B*0702 tetramers made with the peptide
Description: For the CTL assays, KM22 and JY tumor cell lines were used as target cells. Peptide-pulsed cells were pulsed with 50 μg/mL peptide for 2 hours. […] Then, 10⁴ cells/well were added to a 96-well round bottom plate. Various numbers of CTL were added to obtain an end volume of 200 μL, with subsequent incubation for 4 hrs at 37° C. Then, supernatants (500 μL/well) were harvested and counted in a beta-plate counter. Specific lysis was calculated in percent as follows: 100×(experimental release−spontaneous release/maximum release−spontaneous release). Each, spontaneous and maximum release were determined in presence of either medium or 2% Triton X-100.
Cell lines KM22 and JY are HLA-B*07 positive.

| percent of stimulated cells binding the tetramer [1] [%] | Molecule | other results |
| --- | --- | --- |
| 8 | CD8-positive T cells stimulated with RGS-5 peptide …/MHC-A*02 tetramer complexes |  |
| 19.3 | CD8-positive T cells stimulated with melan-A peptide/MHC-A*02 tetramer complexes |  |

Further lines, the molecule ahead of its results:

| Molecule | percent of stimulated cells binding the tetramer [1] [%] | other results |
| --- | --- | --- |
| IARNLTQQL (also called ADFP) |  | binding result [2]: binds |
| FPSLREAAL (also called MAGEA1; MAGE-1) |  | binding result [3]: binds |
